# Residue numbers refer to the chain shown, from its start.
# B1: SEQ ID NO 146 (Fab, V domains shown)
# VH: EVQLVESGGGLVQPGGSLRLSCAASGFIFSNHWMNWVRQAPGKGLEWIGEIRSKSINGATHYAESVKGRFIISRDGNKNDLTLEMNSLKTEDTAEYYCARNYYGSTPDYWGQGTLVTVS
# VL: EIVLTQSPDFQSVTPKEKVTITCRASQFVGSSIHWYQQKPDQSPKLLIKYASESMSGVPSRFSGSGSGTDFTFTISSLEAEDAATYYCQQSHSWPFTFGPGTKVDIK
# notes: Fab, E. coli lysate
# B2: SEQ ID NO 164 (Fab, V domains shown)
# VH: B1 VH with V5T, F27S, W33Y, N57Y, G58S, K78G, N79T, T82Y, P107Y
# VL: B1 VL
# notes: Fab, E. coli lysate
# B3: SEQ ID NO 184 (Fab, V domains shown)
# VH: B1 VH with G26Q, W33Y, G58S, K78G, N79T, T82Y, P107Y
# VL: B1 VL
# notes: Fab, E. coli lysate
# B4: SEQ ID NO 174 (Fab, V domains shown)
# VH: EVQLVESGGGLVQPGGSLRLSCRASGSTFSNHYMNWVRQAPGKGLEWIGEIRSKSSYSATSYAESVKGRFIISRDDNKTDLTLEMNSLKTEDTAEYYCAQNYYGSTPDYWGQGTLVTVS
# VL: B1 VL
# notes: Fab, E. coli lysate
# B5: SEQ ID NO 172 (Fab, V domains shown)
# VH: B1 VH with V5T, I28T, N57Y, R100Q
# VL: B1 VL
# notes: Fab, E. coli lysate
# B6: SEQ ID NO 180 (Fab, V domains shown)
# VH: B4 VH with S27F, T28I, Y57N, S61H, D80S
# VL: B1 VL
# notes: Fab, E. coli lysate
# B7: SEQ ID NO 157 (Fab, V domains shown)
# VH: B4 VH with V5T, T28I, Y33W, S56I, K78G, D80S
# VL: B1 VL
# notes: Fab, E. coli lysate
# B8: SEQ ID NO 155 (Fab, V domains shown)
# VH: B4 VH with V5T, R23A, G26Q, Y33W, T79N, D80S, T82Y, Q100R, P107Y
# VL: B1 VL
# notes: Fab, E. coli lysate
# B9: SEQ ID NO 150 (Fab, V domains shown)
# VH: B1 VH with G26Q, I28T, W33Y, H61S, G76D, K78G, N79T, T82Y, P107Y
# VL: B1 VL
# notes: Fab, E. coli lysate
# B10: SEQ ID NO 175 (Fab, V domains shown)
# VH: B1 VH with A23R, G76D, N79T, D80S, R100Q, P107Y
# VL: B1 VL
# notes: Fab, E. coli lysate
# B11: SEQ ID NO 167 (Fab, V domains shown)
# VH: B1 VH with G26Q, I28T, I56S, N57Y, G76D, N79T, P107Y
# VL: B1 VL
# notes: Fab, E. coli lysate
# B12: SEQ ID NO 181 (Fab, V domains shown)
# VH: B4 VH with R23A, S27F, Y33W, S61H, T79N, D80S
# VL: B1 VL
# notes: Fab, E. coli lysate
# B13: SEQ ID NO 182 (Fab, V domains shown)
# VH: B4 VH with V5T, R23A, S27F, S56I, S61H, D76G, K78G, T82Y
# VL: B1 VL
# notes: Fab, E. coli lysate
# B14: SEQ ID NO 169 (Fab, V domains shown)
# VH: B1 VH with V5T, W33Y, H61S, G76D, K78G, R100Q
# VL: B1 VL
# notes: Fab, E. coli lysate
# B15: SEQ ID NO 149 (Fab, V domains shown)
# VH: B4 VH with V5T, G26Q, S27F, T28I, S61H, K78G, T79N, D80S, T82Y, P107Y
# VL: B1 VL
# notes: Fab, E. coli lysate
# B16: SEQ ID NO 178 (Fab, V domains shown)
# VH: B1 VH with I28T, W33Y, N57Y, G58S, K78G, D80S
# VL: B1 VL
# notes: Fab, E. coli lysate
# B17: SEQ ID NO 161 (Fab, V domains shown)
# VH: B1 VH with V5T, A23R, N57Y, G58S, G76D, K78G, T82Y, R100Q
# VL: B1 VL
# notes: Fab, E. coli lysate
# B18: SEQ ID NO 168 (Fab, V domains shown)
# VH: B1 VH with V5T, G26Q, F27S, I28T, H61S, N79T, D80S, T82Y
# VL: B1 VL
# notes: Fab, E. coli lysate
# B19: SEQ ID NO 177 (Fab, V domains shown)
# VH: B4 VH with V5T, R23A, G26Q, Y57N, S58G, T79N, P107Y
# VL: B1 VL
# notes: Fab, E. coli lysate
# B20: SEQ ID NO 159 (Fab, V domains shown)
# VH: B1 VH with N57Y, G58S, H61S, K78G, N79T, D80S, P107Y
# VL: B1 VL
# notes: Fab, E. coli lysate
# B21: SEQ ID NO 151 (Fab, V domains shown)
# VH: B1 VH with G26Q, W33Y, N57Y, K78G, D80S
# VL: B1 VL
# notes: Fab, E. coli lysate
# B22: SEQ ID NO 166 (Fab, V domains shown)
# VH: B1 VH with G26Q, W33Y, G58S, H61S, N79T, T82Y, P107Y
# VL: B1 VL
# notes: Fab, E. coli lysate
# B23: SEQ ID NO 158 (Fab, V domains shown)
# VH: B1 VH with A23R, G26Q, N57Y, G76D, T82Y
# VL: B1 VL
# notes: Fab, E. coli lysate
# B24: SEQ ID NO 170 (Fab, V domains shown)
# VH: B4 VH with R23A, Y33W, S56I, Y57N, S61H, K78G, D80S, T82Y, P107Y
# VL: B1 VL
# notes: Fab, E. coli lysate
# B25: SEQ ID NO 148 (Fab, V domains shown)
# VH: B1 VH with A23R, G26Q, W33Y, N57Y, H61S, K78G, T82Y, R100Q, P107Y
# VL: B1 VL
# notes: Fab, E. coli lysate
# B26: SEQ ID NO 163 (Fab, V domains shown)
# VH: B1 VH with G26Q, N57Y, G58S, G76D, N79T, R100Q
# VL: B1 VL
# notes: Fab, E. coli lysate
# B27: SEQ ID NO 179 (Fab, V domains shown)
# VH: B1 VH with V5T, G26Q, I28T, I56S, G76D, K78G, N79T, D80S
# VL: B1 VL
# notes: Fab, E. coli lysate
# B28: SEQ ID NO 171 (Fab, V domains shown)
# VH: B4 VH with R23A, G26Q, S56I, K78G, T79N, D80S, T82Y
# VL: B1 VL
# notes: Fab, E. coli lysate
# B29: SEQ ID NO 156 (Fab, V domains shown)
# VH: B1 VH with V5T, G26Q, F27S, I28T, G58S, H61S, G76D, P107Y
# VL: B1 VL
# notes: Fab, E. coli lysate
# B30: SEQ ID NO 165 (Fab, V domains shown)
# VH: B4 VH with R23A, G26Q, S27F, S58G, S61H, D76G, T82Y, P107Y
# VL: B1 VL
# notes: Fab, E. coli lysate
# B31: SEQ ID NO 162 (Fab, V domains shown)
# VH: B1 VH with G26Q, W33Y, I56S, N57Y, G58S, P107Y
# VL: B1 VL
# notes: Fab, E. coli lysate
# Target: T1, human tumor necrosis factor-α (rHuTNF-alpha, Biosource) (human, UniProt P01375 77-233)
# T1 construct: Bought recombinant protein coated on ELISA plates; The TNFα of the Biacore assay is not described further; also called TNFα; human TNFα
# Assay: solid-phase ELISA, Fab lysate on coated rHuTNF-alpha
# Outline: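 E. coli lysates expressing His-tagged Fab (pTrcHis2A) were incubated 2 h at RT on wells coated with 1 μg/ml rHuTNF-α and blocked with BSA. Bound Fab was detected with biotinylated anti-human kappa plus penta-His conjugates, then streptavidin-POD and TMB. Absorbance was read at 450 nm.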
# T1 sequence (P01375 77-233 limits assumed): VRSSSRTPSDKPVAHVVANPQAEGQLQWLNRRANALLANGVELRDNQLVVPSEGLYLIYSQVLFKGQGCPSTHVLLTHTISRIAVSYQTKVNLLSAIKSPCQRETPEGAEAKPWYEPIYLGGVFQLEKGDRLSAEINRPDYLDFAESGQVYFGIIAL
binder,measurement,value
B1,binding result,binds
B2,binding result,binds
B3,binding result,binds
B4,binding result,binds
B5,binding result,binds
B6,binding result,binds
B7,binding result,binds
B8,binding result,binds
B9,binding result,binds
B10,binding result,binds
B11,binding result,binds
B12,binding result,binds
B13,binding result,binds
B14,binding result,binds
B15,binding result,binds
B16,binding result,binds
B17,binding result,binds
B18,binding result,binds
B19,binding result,binds
B20,binding result,binds
B21,binding result,binds
B22,binding result,binds
B23,binding result,binds
B24,binding result,binds
B25,binding result,binds
B26,binding result,binds
B27,binding result,binds
B28,binding result,binds
B29,binding result,binds
B30,binding result,binds
B31,binding result,binds

# Reference: patent publication US20070092518A1 (published 2007)
